Assay results: patent publication US9266939B2, “Compositions comprising natriuretic peptides and methods of use thereof” (Alexion Pharmaceuticals, Inc., priority 2010, dated 2016)

Experiments:
[1] = Active NC2st concentration in serum of treated Fgfr3^369/+ mice (cGMP assay); assay type: in vivo; settings: 13-18 hours after the last dose
Method: At necropsy (Day 64), blood samples were collected by cardiac puncture under isoflurane anesthesia 13-18 hours after the last dose. Blood samples were collected into Microvette 500Z/gel tube (Sarstedt, serum/gel clotting activator, #20.1344), incubated at room temperature for 30 to 60 minutes and centrifuged at 10,000×g for five minutes at 2-8° C. 100 μl of serum was then transferred into 0.5 mL tubes (Sarstedt, #72.699), and the remainder was transferred in a second tube. The two tubes were frozen in liquid nitrogen and stored at −80° C. until analysis.

NPR-B [2] = biological target: T1, NPR-B (Homo sapiens, UniProt P20594); experiment: Whole cell guanylyl cyclase (cGMP) assay, NPR-B; assay type: cell-based; design: expressed in transfected cells
T1 sequence (P20594 23-1047): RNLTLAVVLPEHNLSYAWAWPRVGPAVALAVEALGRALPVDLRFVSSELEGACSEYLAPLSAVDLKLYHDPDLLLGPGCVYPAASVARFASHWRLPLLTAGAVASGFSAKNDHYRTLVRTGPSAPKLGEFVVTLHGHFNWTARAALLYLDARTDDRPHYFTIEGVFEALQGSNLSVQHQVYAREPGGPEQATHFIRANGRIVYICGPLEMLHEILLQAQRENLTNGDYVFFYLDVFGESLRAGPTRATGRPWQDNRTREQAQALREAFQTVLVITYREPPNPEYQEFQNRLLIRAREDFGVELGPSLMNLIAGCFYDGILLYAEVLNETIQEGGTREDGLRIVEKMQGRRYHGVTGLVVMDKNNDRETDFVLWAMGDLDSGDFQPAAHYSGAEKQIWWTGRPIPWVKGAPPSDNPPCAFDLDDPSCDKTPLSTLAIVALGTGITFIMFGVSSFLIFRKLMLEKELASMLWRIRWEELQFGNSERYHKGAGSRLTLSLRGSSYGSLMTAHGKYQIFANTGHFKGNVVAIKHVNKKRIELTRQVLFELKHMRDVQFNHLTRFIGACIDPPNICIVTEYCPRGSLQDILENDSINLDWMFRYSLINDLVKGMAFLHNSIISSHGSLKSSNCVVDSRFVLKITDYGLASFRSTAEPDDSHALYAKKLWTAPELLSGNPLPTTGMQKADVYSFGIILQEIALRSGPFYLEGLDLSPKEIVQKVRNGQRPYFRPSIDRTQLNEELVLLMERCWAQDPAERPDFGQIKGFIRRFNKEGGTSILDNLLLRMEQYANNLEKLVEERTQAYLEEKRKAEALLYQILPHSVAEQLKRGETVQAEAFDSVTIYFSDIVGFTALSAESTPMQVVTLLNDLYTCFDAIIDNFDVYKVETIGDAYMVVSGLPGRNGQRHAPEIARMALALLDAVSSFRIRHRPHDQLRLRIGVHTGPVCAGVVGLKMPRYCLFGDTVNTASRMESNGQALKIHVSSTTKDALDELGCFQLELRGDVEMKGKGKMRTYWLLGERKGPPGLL
Summary of the method: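 HEK293S cells, transiently transfected or stably expressing human NPR-B, treated in triplicate with increasing test-protein concentrations in serum-free DMEM with 1 mM IBMX and 0.5% BSA, 37° C, 30 min to one hour; CNP as reference. Lysate cGMP measured by Catchpoint kit; four-parameter logistic fit of dose-response curves.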

NPR-B [3] = biological target: T1, NPR-B; experiment: Membrane guanylyl cyclase (cGMP) assay, NPR-B; assay type: biochemical; settings: second NPR-B membrane assay (FIG. 21B)
[4] = NPR-B whole cell assay (FIG. 21C)
[5] = projected from relative activities of CNP22 and NC2st in NPR-B whole cell assays

Question: Which “mean NC2st blood serum level (active concentration)” value ([1]; Tx10 group) does the source give for “NC2st: Fc-CNP fusion: Strep-tag II, TEV site, human IgG-1 Fc, 16-amino acid glycine-rich linker, CNP22; SEQ ID NO: 502” here?
Answer: The value was “above the projected threshold for 50% reversal of the ACH phenotype”.

Question: And the “mean NC2st blood serum level (active concentration)” value ([1]; Tx100 group)?
Answer: The value was “nearly three-fold above the projected threshold for 100% reversal”.

Question: What about the “efficacy relative to CNP” value (NPR-B [2]; [4]) of the same substance?
Answer: The value was 84%.

Question: And the “potency relative to CNP (times less than that of CNP)” value (NPR-B [2]; [4])?
Answer: The value was 83 times.

Question: And the “projected targeted NC2st concentration to achieve 50% reversal of ACH phenotype” value (NPR-B [2]; [5])?
Answer: Its value is 345 (±95 S.D.) nM.

Question: What about the “projected targeted NC2st concentration to achieve >100% reversal of ACH phenotype” value (NPR-B [2]; [5]) of the same substance?
Answer: The value was 1214 (±446 S.D.) nM.

Question: And the “efficacy relative to CNP” value (NPR-B [3])?
Answer: The value was 61%.

Question: What about the “potency relative to CNP (times less than that of CNP)” value (NPR-B [3]) of the same substance?
Answer: Its value is 19 times.
